Data published in paper PMC3500698 (Science signaling, 2012).

Legend:
[1] = tested on: JNK1, p38α and ERK2; test: MAPK interaction profile from FP binding affinities; set-up: species or system human; conditions: from FP binding affinities to JNK1, p38α and ERK2
[2] = molecular target: extracellular signal-regulated kinase 2 (ERK2) (human) (UniProt P28482); test: fluorescence polarisation
[3] = molecular target: p38α (human) (UniProt Q16539); test: fluorescence polarisation
[4] = molecular target: extracellular signal-regulated kinase 2 (ERK2) (human, UniProt P28482); test: fluorescence polarisation
[5] = molecular target: p38α (human, UniProt Q16539 1-360); test: fluorescence polarisation
Chain of p38α (Q16539 whole entry): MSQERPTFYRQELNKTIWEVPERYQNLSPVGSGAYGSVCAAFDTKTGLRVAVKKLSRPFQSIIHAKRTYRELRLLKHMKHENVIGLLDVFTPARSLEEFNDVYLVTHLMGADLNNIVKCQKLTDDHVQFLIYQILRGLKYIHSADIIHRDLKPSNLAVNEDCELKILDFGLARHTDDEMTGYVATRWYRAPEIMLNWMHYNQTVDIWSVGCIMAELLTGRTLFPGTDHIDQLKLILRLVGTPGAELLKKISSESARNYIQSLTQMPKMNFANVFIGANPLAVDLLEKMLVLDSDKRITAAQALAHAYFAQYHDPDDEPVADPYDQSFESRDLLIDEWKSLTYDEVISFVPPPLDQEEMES

Chain of p38α (human) (Q16539 whole entry): as above
Chain of extracellular signal-regulated kinase 2 (ERK2) (human) (P28482 whole entry): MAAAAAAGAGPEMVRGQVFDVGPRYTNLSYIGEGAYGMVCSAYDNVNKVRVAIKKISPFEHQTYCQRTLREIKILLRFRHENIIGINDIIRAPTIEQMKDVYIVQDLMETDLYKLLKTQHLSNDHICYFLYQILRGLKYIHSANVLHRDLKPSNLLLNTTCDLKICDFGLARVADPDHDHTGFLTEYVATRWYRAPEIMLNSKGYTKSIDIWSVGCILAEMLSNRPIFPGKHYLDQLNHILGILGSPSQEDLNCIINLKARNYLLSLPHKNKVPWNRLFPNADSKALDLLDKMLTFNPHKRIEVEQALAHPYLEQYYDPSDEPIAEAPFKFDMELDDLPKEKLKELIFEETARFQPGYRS
Chain of extracellular signal-regulated kinase 2 (ERK2) (P28482 whole entry): as above

## LERPSRDHLYLPLE [pepNFAT4]
[1]
  MAPK binding profile (in words): bound JNK1 exclusively
[1]; listed as NFAT4
  MAPK binding profile (in words): JNK-specific

## pepRSK1 (C-terminal MAPK docking peptide of RSK1)
[2]
  fold preference for the cognate MAPK (ERK2 against p38α): 20 fold

## pepMK2 (C-terminal MAPK docking peptide of MK2)
[3]
  fold preference for the cognate MAPK (p38α against ERK2): 400 fold

## LSLSSLAASSLAKRRQQ (designed binder) [pepSynth-revD (artificially designed revD-motif peptide)]
[4]
  Kd: ~10 µM
[5]
  Kd: ~30 µM
